Source: US7470668B2, “Method of use of specific natriuretic peptide receptor c ligands, transgenic non-human mammals expressing specific natriuretic peptide receptor c antagonists and cells thereof” (Enobia Pharma Inc., priority 2005, dated 2008)

How the values were obtained:
NPR-C = target: T1, NPR-C (Homo sapiens, UniProt P17342); assay: ANP-stimulated cGMP in NPR-C overexpressing HEK293 cells; assay type: cell-based; conditions: NPR-C-expressing cells, 0.1 nM ANP plus 10 nM peptide
T1 construct: expressed in transfected cells; host or cells: HEK293, transient, pCDNA1.1 (CMV promoter)
T1 sequence (P17342 27-541): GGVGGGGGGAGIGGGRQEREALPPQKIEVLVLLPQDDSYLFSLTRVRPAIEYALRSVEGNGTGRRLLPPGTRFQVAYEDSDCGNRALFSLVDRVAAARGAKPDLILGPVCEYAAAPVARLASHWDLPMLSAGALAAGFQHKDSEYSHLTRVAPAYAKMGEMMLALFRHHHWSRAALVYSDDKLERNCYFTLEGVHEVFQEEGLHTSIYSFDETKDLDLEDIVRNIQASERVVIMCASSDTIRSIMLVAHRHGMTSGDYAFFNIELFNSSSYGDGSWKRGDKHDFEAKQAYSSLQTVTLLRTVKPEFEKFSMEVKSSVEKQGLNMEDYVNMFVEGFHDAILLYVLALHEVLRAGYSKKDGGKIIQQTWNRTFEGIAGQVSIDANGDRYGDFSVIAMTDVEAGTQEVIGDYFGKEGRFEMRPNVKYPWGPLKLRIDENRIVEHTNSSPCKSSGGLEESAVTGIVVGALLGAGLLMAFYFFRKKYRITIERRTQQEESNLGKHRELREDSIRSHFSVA
Excerpt: The expression plasmid for rat GC-A containing the entire coding sequence cloned between the NheI-KpnI sites of CMV-driven pBK plasmid (Stratagene, La Jolla, Calif.) was kindly provided by Dr. A. De Léan (Département de Pharmacologie, Université de Montréal). The human NPR-C and GC-B coding sequences were amplified by RT-PCR from human embryonic kidney polyA RNA (Clontech, Palo Alto, Calif.) with the following primer pairs: NPR-C-5′-[…]-3′(forward) (SEQ ID NO: 74) and 5′-[…]-3′ (SEQ ID NO: 75) (reverse); GC-B-5′-[…]-3′ (SEQ ID NO: 76) (forward) and 5′-[…]-3′ (SEQ ID NO: 77) (reverse). The resulting PCR products were then cloned downstream of the CMV-promoter into the pCDNA1.1 plasmid (Invitrogen, Burlington, ON, Canada). All constructs were validated by DNA sequencing.

endogenous GC-A = target: T2, endogenous GC-A (Homo sapiens, UniProt P16066); assay: ANP-stimulated cGMP in GFP-transfected HEK293 cells (endogenous GC-A); conditions: co-incubation with 10 nM peptide (data not shown)
T2 sequence (P16066 33-1061): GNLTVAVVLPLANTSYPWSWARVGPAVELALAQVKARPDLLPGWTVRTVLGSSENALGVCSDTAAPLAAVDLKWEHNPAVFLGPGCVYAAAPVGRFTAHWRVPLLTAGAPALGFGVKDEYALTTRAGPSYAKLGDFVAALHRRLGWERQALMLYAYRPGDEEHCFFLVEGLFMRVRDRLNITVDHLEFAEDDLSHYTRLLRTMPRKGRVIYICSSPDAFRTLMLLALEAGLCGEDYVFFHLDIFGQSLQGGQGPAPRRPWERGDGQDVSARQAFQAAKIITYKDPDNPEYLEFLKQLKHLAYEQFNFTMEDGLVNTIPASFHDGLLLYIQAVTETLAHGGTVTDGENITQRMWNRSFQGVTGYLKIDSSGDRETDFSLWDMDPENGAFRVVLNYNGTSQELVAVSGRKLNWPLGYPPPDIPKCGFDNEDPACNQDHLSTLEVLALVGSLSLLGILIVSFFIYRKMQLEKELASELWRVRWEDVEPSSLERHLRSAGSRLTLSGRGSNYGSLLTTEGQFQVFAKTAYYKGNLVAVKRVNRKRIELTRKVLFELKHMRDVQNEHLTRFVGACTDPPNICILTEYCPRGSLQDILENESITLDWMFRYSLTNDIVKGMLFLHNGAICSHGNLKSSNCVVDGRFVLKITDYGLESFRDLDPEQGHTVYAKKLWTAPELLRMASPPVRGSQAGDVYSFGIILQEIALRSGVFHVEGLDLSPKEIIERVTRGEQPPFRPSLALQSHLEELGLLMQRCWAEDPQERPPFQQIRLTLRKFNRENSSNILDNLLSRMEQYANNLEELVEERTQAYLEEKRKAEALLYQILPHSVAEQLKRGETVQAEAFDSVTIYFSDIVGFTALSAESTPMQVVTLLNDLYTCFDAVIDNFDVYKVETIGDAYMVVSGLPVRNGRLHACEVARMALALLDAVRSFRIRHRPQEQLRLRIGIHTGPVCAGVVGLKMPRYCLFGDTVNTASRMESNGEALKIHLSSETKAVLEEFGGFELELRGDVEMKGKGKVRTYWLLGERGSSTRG

B1: rhOstn[27-133]: N-terminal 6 histidine-tagged recombinant human Ostn amino acids 27-133 produced in E.coli, SEQ ID NO: 57 (protein)
chain: SVDVTTTEAFDSGVIDVQSTPTVREEKSATDLTAKLLLLDELVSLENDVIETKKKRSFSGFGSPLDRLSAGSVDHKGKQRKVVDHPKRRFGIPMDRIGRNRLSNSRG
modifications: N-terminal His6 tag; recombinant mature osteocrin
increase in cGMP levels (restored ANP signalling) (NPR-C): 8 fold | effect on ANP signalling (endogenous GC-A): no effect
